The results in this text go back to patent publication US20130281317A1 (ALLBERT EINSTEIN COLLEGE OF MEDICINE OF YESHIVA UNIVERSITY, published 2013).

This assay addresses bovine serum albumin (BSA) (bovine, UniProt P02769 25-607). The experiment in a line: phage ELISA, coated wells.

bovine serum albumin (BSA), sequence (P02769 25-607 limits assumed): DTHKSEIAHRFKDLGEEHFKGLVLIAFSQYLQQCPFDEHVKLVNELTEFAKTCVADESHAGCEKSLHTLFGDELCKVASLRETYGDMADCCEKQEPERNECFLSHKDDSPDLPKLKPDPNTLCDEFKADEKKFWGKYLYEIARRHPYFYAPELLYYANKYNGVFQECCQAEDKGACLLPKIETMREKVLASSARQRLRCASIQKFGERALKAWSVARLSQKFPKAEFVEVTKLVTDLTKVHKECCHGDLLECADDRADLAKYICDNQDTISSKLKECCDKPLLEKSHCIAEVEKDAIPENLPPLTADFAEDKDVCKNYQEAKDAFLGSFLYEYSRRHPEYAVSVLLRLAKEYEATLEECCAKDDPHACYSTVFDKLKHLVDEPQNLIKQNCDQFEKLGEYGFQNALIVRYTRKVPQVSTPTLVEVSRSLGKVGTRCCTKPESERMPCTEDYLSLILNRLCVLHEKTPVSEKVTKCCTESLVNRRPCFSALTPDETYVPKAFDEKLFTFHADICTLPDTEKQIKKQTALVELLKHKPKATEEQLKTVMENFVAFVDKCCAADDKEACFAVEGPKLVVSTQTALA
Procedure: Wells of Costar EIA/RIA high-binding plates were coated with ˜400-600 μg of antigen per well in phosphate-buffered saline (PBS) pH 7.0 at room temperature for 1 hr. The well solutions were decanted, and unbound well sites were blocked with PBS-T/0.5% (w/v) BSA for 1 hr. The wells were washed with PBS-T, phage solutions added and allowed to bind for 30 mins The phage solutions were decanted, the wells washed 5-7 times with PBS-T. Next, a solution containing 1:2500 dilution of anti-M13/HRP conjugate (GE Healthcare, Piscataway, N.J.) was added and allowed to bind for 30 mins. The wells were washed with PBS-T ˜5-7 times and developed using 3,3′,5,5′-tetramethylbezidine (TMB) substrate (Sigma). The ELISA signal was quantified either by direct measurement of blue color absorbance (OD650) or by quenching with sulfuric acid after 10-15 mins and determining the OD at 450 nm.

B1: 2G12 (Fab)2 fragment displayed bivalently on M13 phage from p2G12-Fab2zip (WT) (Fab, V domains shown, not shown: a dimerising Fc or GST; large carriers)
VH: EVQLVESGGGLVKAGGSLILSCGVSNFRISAHTMNWVRRVPGGGLEWVASISTSSTYRDYADAVKGRFTVSRDDLEDFVYLQMHKMRVEDTAIYYCARKGSDRLSDNDPFDAWGPGTVVTVSP
VL: VVMTQSPSTLSASVGDTITITCRASQSIETWLAWYQQKPGKAPKLLIYKASTLKTGVPSRFSGSGSGTEFTLTISGLQFDDFATYHCQHYAGYSATFGQGTRVEIKR
notes: also called 2G12-Fab-biv phage; WT 2G12 clone
With B1, the binding result was “no binding”.
